# B1: IR2* (dsDNA)
# DNA 1: AAACAGTCGACTCTGATGAGGGC
# DNA 2: GCCCTCATCAGAGTCGACTGTTT
# B2: IR1 (dsDNA)
# DNA 1: TTGAAGTTTACCAACTAGGTTACACTTCAA
# DNA 2: TTGAAGTGTAACCTAGTTGGTAAACTTCAA
# B3: IR2 (dsDNA)
# DNA 1: AAACACATCATTCTGATGAGGGC
# DNA 2: GCCCTCATCAGAATGATGTGTTT
# Key:
# Conditions in all cases: protein: recombinant; tags: N-terminal His6; chain copies: 2; label: none (ethidium bromide stain); blunt
# [1] = biological target: T1, RepA (His6-RepA) (plasmid RA3 (IncU, isolated from …, UniProt Q209K0 1-98)); assay: EMSA; no binding up to 4 uM RepA
# T1 sequence: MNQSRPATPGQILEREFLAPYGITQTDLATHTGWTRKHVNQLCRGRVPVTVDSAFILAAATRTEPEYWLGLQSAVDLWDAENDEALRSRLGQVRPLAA
# [2] = biological target: T1, RepA (His6-RepA); assay: EMSA; bound at 0.1 uM RepA; 25 mM Tris-HCl pH 8.0, 5 mM MgCl2, 40 mM NaCl, 0.5 mg/mL BSA, 30 min at 37 C, 20 uL; 30 ng PCR fragment (0.8% agarose) or 150 ng ds oligo (10% native PAGE), 0.5x TBE
# [3] = biological target: T1, RepA (His6-RepA); assay: EMSA; no binding up to 4 uM RepA; 25 mM Tris-HCl pH 8.0, 5 mM MgCl2, 40 mM NaCl, 0.5 mg/mL BSA, 30 min at 37 C, 20 uL; 30 ng PCR fragment (0.8% agarose) or 150 ng ds oligo (10% native PAGE), 0.5x TBE
binder,measurement,setting,value
B1,binding result,[1],no binding
B2,binding result,[2],binds
B3,binding result,[3],no binding
